Test results from paper doi:10.1101/2023.08.25.554789.

Tests used:
apCC-Hex-LLIA [1] = assay: AUC
apCC-Hex-LLIA [2] = assay: crystal structure

stoichiometry N (apCC-Hex-LLIA [1]): 6 | stoichiometry N (apCC-Hex-LLIA [2]): 6
Substance: apCC-Hex-LLIA (peptide)
